The supplement of paper PMC12764529
± gives the half width of the 95% confidence interval.

Columns and labels:
[1] = folding stability dG unfold from chymotrypsin proteolysis; higher = more stable
Procedure, shortened: (§1)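 Mini-proteins designed to be under 80 residues and free of cysteine were carried in a PA-tagged cDNA display construct and digested with trypsin and with chymotrypsin. Each protease was applied at 11 threefold-diluted concentrations, alongside a no-protease condition, before sequencing. K50 came from Bayesian fitting of the sequencing counts, and unfolding free energy was obtained by comparing it with a sequence-predicted unfolded-state K50 and a shared folded-state K50, for each protease separately or for both together. Designs were retained only if their AlphaFold2 dimer inter-PAE exceeded 15.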

[2] = folding stability dG unfold from trypsin proteolysis; higher = more stable
Procedure, shortened: as §1

[3] = folding stability dG unfold (combined trypsin and chymotrypsin); higher = more stable
Procedure, shortened: as §1

Row | Sequence | folding stability dG unfold [1] [kcal/mol] | folding stability dG unfold [2] [kcal/mol] | folding stability dG unfold [3] [kcal/mol]
1 | SAGGSAGGSSGKYTITVTRKNPDGTPLGVFPIEVEGESEEEAKALAEELKNQPDVVEVKVTYVDSAGGSAGG [r6_475_JUSTAS] | 1.02 ± 0.054 | 1.37 ± 0.027 | 1.22 ± 0.048
2 | SAGGSAGGSKTITLSAEELEKMSPEERKKLAELAEKLGAKIEVKDGKVTITIEGLTPEELKALSAGGSAGGS [r12_945_TrROS_Hall] | 2.33 ± 0.12 | 3.84 ± 0.25 | 3.06 ± 0.25
3 | SAGGKIKIMDIEIERHGGYYKIEIWIQVDTPDDIEDLLKAGVPNVEVERRRNPNGRLYVQAEFYIPAGSAGG [r13_506_TrROS] | 3.49 ± 0.17 | 1.74 ± 0.11 | 3.14 ± 0.26
4 | SAGGSAGGSKTKTIEIEVDGKKVRITVNEDGSVTIEVYYPGKPVKTIEIPGMSIEEILKALLESAGGSAGGS [r20_8_TrROS_Hall] | 2.27 ± 0.071 | 3.08 ± 0.071 | 2.73 ± 0.098
5 | SAGGMTLKIRVKDKEKALEALKALPGIEVKEVKVEKNENGELTVTVESKEALDALKKAGIEVEEIEPSAGGS [r16_381_TrROS_Hall] | 3.18 ± 0.087 | 2.33 ± 0.15 | 2.9 ± 0.16
6 | SAKTKTIEIEVKIKLIEIDPKTGKKTEKEFTAKATITYDEENNVVTIKIEFKDNGKTITITLPPGAKIKSAG [r14_587_TrROS_Hall] | 2.25 ± 0.14 | 2.1 ± 0.098 | 2.26 ± 0.27
7 | SAGGKITAFVLVELPDGSVVERTYEFERLDDLLAFLEADPGPKLADLEIIPPEGSDDIIIPLVARVEPSAGG [r13_796_TrMRF] | 2.15 ± 0.053 | 0.883 ± 0.041 | 1.77 ± 0.1
8 | SAGGSAMRMERIKLPDGKDITIMRHPNEPRQYQLFFPGGRSISVNFPSPEEAIDHALEWIKNGKPFSAGGSA [r15_38_TrROS] | 0.764 ± 0.13 | 0.609 ± 0.12 | 0.78 ± 0.097
9 | SAGGMTIFLPLENKEEVIEKLKKEGYKPVEVKEEGDVVTIKVEKKKDEKKEEITIVFYPPSKPEEPVSAGGS [r8_307_JUSTAS] | 2.59 ± 0.085 | 2.77 ± 0.14 | 2.68 ± 0.1
10 | SAGGSPTIKLEILLPKEMTPEEVEALARELEEAGYEIVSIKVETVKDEDGREWVRVTITLRPKEDLSAGGSA [r2_442_TrROS_Hall] | 3.97 ± 0.045 | 3.21 ± 0.076 | 3.73 ± 0.092
11 | SAGGGTYIEIKVTYSDGTTETFTVPAKPEDIETVVKEIEDKLKELGGTITSIKIENGKITIEATIPDSAGGS [r16_662_TrMRF] | 3.3 ± 0.087 | 2.41 ± 0.19 | 3.06 ± 0.18
12 | SKGKKVLVIPATLPEAEEIAKALGLPPSLFPSSKKLVDALKEAFPENVVVVVAPAKPVTEEELKALAEGKSA [r9_74_TrMRF] | 0.93 ± 0.039 | 0.19 ± 0.037 | 0.678 ± 0.081
13 | SAGGSAGGSGMSPEALAIKEQVKAEHPDLRVEVKEKILPNGTLEITVTFDDGTTETYTIPIGESAGGSAGGS [r20_210_JUSTAS] | 3.36 ± 0.048 | 3.01 ± 0.13 | 3.29 ± 0.086
14 | SAMKVYEIPIEIPISKYKPSDIIAALKKALDKLNIPFPEEIIKELTIISIKTGGNISTAIKTLLENGLLSAG [r14_364_TrMRF] | 1.29 ± 0.096 | 1.69 ± 0.12 | 1.56 ± 0.17
15 | SAGGSAGGSTVEEELLEKAAAAHPPGTTLTVDVVIVDPNNPVPIGTRTVTITVNADGSYTVVDSAGGSAGGS [r20_151_JUSTAS] | 2.65 ± 0.054 | 2.18 ± 0.07 | 2.46 ± 0.09
16 | SAGGSAGGGIEPGKKVKAKATLILPGGKPIPFTATFTPDYVTLDLGKGSLTVPVEFIAHLEIEDSAGGSAGG [r6_132_TrMRF] | 1.48 ± 0.079 | 0.371 ± 0.052 | 1.11 ± 0.053
17 | SAGGNIKIQVENHEDGWYMKIWVPGNGKEQEYPFEPGDTIDTLPPGAEPVKIEWFHMNDNPQEFELDSAGGS [r8_487_TrROS] | 0.45 ± 0.23 | 0.295 ± 0.11 | 0.421 ± 0.18
18 | SAGGSAGGSAGKKKKKKLVRVRITYKNGKKKEFVFKTKEEAEKALKEEFNIEKIEIEEIPSAGGSAGGSAGG [r17_508_TrROS_Hall] | 3.66 ± 0.068 | 2.84 ± 0.1 | 3.43 ± 0.16
19 | SAGGSAPESVKPPVVVVTLVLEFPDGRKLTIPVAHEELAEALEVALALPLALEHDTKLVKVEKANVSAGGSA [r15_140_TrMRF] | 0.736 ± 0.16 | 0.265 ± 0.12 | 0.558 ± 0.15
20 | SAGGSAKTVTVEVTLEDGTKITVTVPEDMSEEERKALAQELAEELREKLRQLRELEKEGKEVRIEPSAGGSA [r15_704_TrROS_Hall] | 2.72 ± 0.042 | 1.02 ± 0.023 | 2.23 ± 0.051
21 | SAGGMIQIERDKDGYLRITIWVPGDPKEAEEIAENIIELLQDLGFDEVDIDYEPFDGGVMIEITVKVSAGGS [r8_113_TrROS] | 3.49 ± 0.083 | 2.9 ± 0.12 | 3.29 ± 0.077

Row | Sequence | folding stability dG unfold [1] [kcal/mol] | folding stability dG unfold [2] [kcal/mol] | folding stability dG unfold [3] [kcal/mol]
22 | SAGGSAGGSITPEEAKALAEEIKKALGVPDVEVLEIRVERDPERDFYTADIVIRLPDGSVIRASAGGSAGGS [r12_508_TrMRF] | 1.04 ± 0.064 | 2.05 ± 0.051 | 1.7 ± 0.11
23 | MYTIEVEVSTEPNPNTTTVTVRITSDDGTPVPEEVVKEAAEKIKKSGYPIDELEVKPLPDGSVEVTLKYSSS [r1_408_JUSTAS] | 4.05 ± 0.13 | 3.31 ± 0.17 | 3.76 ± 0.11
24 | SAGGSAGGSKVFTVEELENMTPEEIRALIKKSKKPVIIVAKSEEEKKRAAELLKELGVEVKVLSAGGSAGGS [r12_97_TrROS_Hall] | 3.6 ± 0.057 | 3.73 ± 0.12 | 3.7 ± 0.11
25 | SAGGSAGGSAGGSMIVERKPAPGGPRVEITIEIPDPTSDVPIIKKLVAEVLEDGSIVKASAGGSAGGSAGGS [r4_448_JUSTAS] | -0.525 ± 0.27 | -0.193 ± 0.16 | -0.205 ± 0.21
26 | SAGKKKVLLAVDPENNALVLVEYETVGDVTFVRSLVFHGNTTTETLGLVRVIEPGKTEKLLISVPIPPSAGG [r19_292_TrMRF] | 2.3 ± 0.05 | 2.07 ± 0.047 | 2.26 ± 0.13
27 | SAGGSAGGSAGPEILIVVESEEEAKKLAEELARALREAGLPEDAKIKIKIIVLPKEELEKSAGGSAGGSAGG [r17_180_TrROS_Hall] | 2.33 ± 0.048 | 1.76 ± 0.062 | 2.12 ± 0.066
28 | SAGGSAGGSAGGSGSKEPKYYYRVVVEDDGNPVVRTYAPDEPLPAPANLKVFPFLADEESAGGSAGGSAGGS [r4_107_TrMRF] | 0.857 ± 0.19 | -0.421 ± 0.81 | 0.452 ± 0.25
29 | SAGGRGVGRPGSRLLLVAEADLEPDEVSVEELAERIREAFPDVRVVDLRVEVGGEKARLFALVELDVSAGGS [r8_202_TrMRF] | 1.64 ± 0.067 | 0.917 ± 0.077 | 1.41 ± 0.092
30 | SAGGSPDIKFNEVKVELPTAETEAEFEKNTYKVEVPAPPELDITTTTTLTTSSGSTTTTTSTSPLELPSAGG [r13_191_JUSTAS] | -1.11 ± 0.79 | 0.0505 ± 0.06 | -0.304 ± 0.11
31 | SAGGEISPEDIKELEIYPIPPEDAQKNGYIMIEIKGPGGKPIAQIMIPVRVPKVKDKDGKPMDLEDMNSAGG [r13_864_TrROS] | 1.6 ± 0.07 | 1.13 ± 0.044 | 1.32 ± 0.22
32 | SAGGSAGGSAGRRRVFFTPDGTLIVVDELPDFVRVTRYRITPGFPRIEPVDTRVLPPGALSAGGSAGGSAGG [r11_844_TrMRF] | 2.94 ± 0.086 | 1.11 ± 0.18 | 2.25 ± 0.16
33 | SAGGSAGGSAGGETITIKNKKTNETVTIEKDKDGNYTITYPDGSKKTYKKGEKISKSALSAGGSAGGSAGGS [r10_98_TrROS_Hall] | 1.18 ± 0.14 | 0.162 ± 0.13 | 0.9 ± 0.18
34 | SAGGMKIKTKSGKELTLKKIKLKYKNKEYEIENLKIKAIKYDPKKKIVHIEVTHPNGKKYTFDLKIKSAGGS [r8_215_TrMRF] | 3.49 ± 0.086 | 1.69 ± 0.052 | 2.8 ± 0.21
35 | SAGGKKEKIVEIKLLDMSYDPENKTVTFKFLVKLENGEEKVIELKISAEDFEKMSLEDILKAVKDFFESAGG [r13_512_TrMRF] | 4.83 ± 0.09 | 3.74 ± 0.16 | 4.72 ± 0.15
36 | SAGGSAKLNITKILSVEFSEDGTIRIKVENENGELYELEIKVKVIPPPEKPEIDPKYLTPEDLEKYSAGGSA [r15_41_TrMRF] | 1.61 ± 0.11 | 1.43 ± 0.029 | 1.6 ± 0.12
37 | SAGGGMMWTVTFYPKETDTPITFPVPKEYITEIDEENNKIVIKKPPGETIEITDFNKIKSIEITPLPSAGGS [r8_111_JUSTAS] | 0.528 ± 0.18 | 0.541 ± 0.04 | 0.586 ± 0.15
38 | SAGGSAGGSAGGMGPPPIETIVIEKPLSEEEYEALKKAYPDKKVTVSEIPGTPNKIATIESAGGSAGGSAGG [r17_254_JUSTAS] | -0.192 ± 0.098 | 0.363 ± 0.042 | 0.0243 ± 0.19
39 | SAGGSAGGSKKAEELAKKLGLEVEIVKVEKKKDGSEVVIVKIKNKDGSELTLVVKDGKVELFPSAGGSAGGS [r12_279_TrROS_Hall] | 2.44 ± 0.073 | 1.79 ± 0.081 | 2.24 ± 0.079
40 | SAGGSAEIPPGAKLEIDEMSFDPGNGRIEMMFKIEDPDGEPLWQIRVSWEFNPENGKMKLDIEIMPSAGGSA [r15_1028_TrROS] | 3.8 ± 0.12 | 2.51 ± 0.19 | 3.49 ± 0.14
41 | SANDAMRKMMENMSPEDMMEMVRPPVPPPPVVTIRVPIEDLPKFLQWLSEEFGVEIEREDGYLYITVTASAG [r14_7_TrROS] | 1.48 ± 0.034 | 0.623 ± 0.084 | 1.22 ± 0.095
42 | SAGGSAGGSAGGKKLRIKVKNKKTGKEIEIEIDVEDKTIEEIAKELAKKLNFEVTEIEPVSAGGSAGGSAGG [r7_590_TrROS_Hall] | 2.9 ± 0.12 | 2.2 ± 0.18 | 2.74 ± 0.24
